Experimental data: FireProtDB (doi:10.1007/s00249-013-0926-9)

B1: Photosystem II lipoprotein Psb27, P74367 (parent)
chain: MSFLKNQLSRLLALILVVAIGLTACDSGTGLTGNYSQDTLTVIATLREAIDLPQDAPNRQEVQDTARGQINDYISRYRRKGDAGGLKSFTTMQTALNSLAGYYTSYGARPIPEKLKKRLQLEFTQAERSIERGV

Variants of: B1
Conditions: Synechocystis sp. (strain ATCC 27184 / PCC 6803 / Kazusa); pH 7; Thermal; CD; Sodium phosphate Tris HCl 20 mM; transition: 2; reversible: Yes; structure 2KMF; whole UniProt chain shown

First: R132E
Second: D38A
The Tm of the first is higher: 60.2 °C for the first, 41.9 °C for the second.

First: R118E
Second: E122R
The Tm of the first is higher: 56.6 °C for the first, 54.4 °C for the second.

Going from Y102H to P110G I111G P112G, the Tm falls from 56.3 °C to 43.3 °C.

Going from P110G P112G to E127R, the Tm rises from 49.2 °C to 56.1 °C.

First: C25S
Second: R78E
The Tm of the first is higher: 58.2 °C for the first, 57 °C for the second.
